Reference: PMC5768779

Tested on: USP48 (isoform 1)
Test: EMSA
Conditions: 50 nM NCP, estimated from first distinct shift, higher species above 4 uM, EMSA: 50 nM NCP, native gel, SPR: immobilized nucleosomes, 10 successive USP48 injections, one-phase binding fit, binding buffer, pH and temperature not in …

Row | Substance | Kd (histone H2A multi-monoubiquitinated at the C-terminal BRCA1 site (K125/K127/K129), DNA unmodified) [µM] | Kd [µM]
1 | NCP H2A-BRCA1ub (multi-monoubiquitinated, Widom 601, 147 bp) | 1 | –
2 | NCP unmodified (Widom 601, 147 bp) | – | 1
